We go through 14 molecules from US20230265151A1, “GIP/GLP1 CO-AGONIST COMPOUNDS” (priority 2020, published 2023).

What all share (assay): cell-based or functional assay
One experiment addresses human glucagon receptor (human, UniProt P47871 26-477).
Experiment [1] has as its target T1, human glucose-dependent insulinotropic polypeptide (GIP) receptor (human, UniProt P48546 22-466).
T1 sequence (looked up): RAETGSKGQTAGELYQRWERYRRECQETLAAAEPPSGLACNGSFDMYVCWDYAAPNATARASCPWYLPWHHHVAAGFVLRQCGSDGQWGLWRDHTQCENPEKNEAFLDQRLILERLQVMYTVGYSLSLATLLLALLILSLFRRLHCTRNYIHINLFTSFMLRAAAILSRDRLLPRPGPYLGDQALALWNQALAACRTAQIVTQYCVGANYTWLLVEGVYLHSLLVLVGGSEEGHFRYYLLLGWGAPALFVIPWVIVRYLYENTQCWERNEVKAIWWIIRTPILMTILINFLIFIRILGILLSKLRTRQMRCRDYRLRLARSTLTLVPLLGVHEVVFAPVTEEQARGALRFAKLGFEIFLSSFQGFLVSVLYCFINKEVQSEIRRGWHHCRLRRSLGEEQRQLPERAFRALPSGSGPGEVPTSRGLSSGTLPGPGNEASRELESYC

In experiment [2] the target is human glucagon-like peptide-1 (GLP-1) receptor (human, UniProt P43220 24-463).

B1: Example 252 (peptide)
peptide: YXEGTXTSDXSIXLDXIAQXEFIKXLIKGGPSSGAPPPS
modifications: Aib2, αMeF(2F)6, 2Nal10, αMeL13, Orn16, Aib20, K24(Z), αMeY25, K28(Z), C-terminal NH2; Z = AEEA2-(γ-Glu)-CO-(CH2)12-CO2H
For B1, the “cAMP EC50” value was greater than 9950 nM in the experiment with human glucagon receptor, 0.049 nM in experiment [1] and 0.555 nM in experiment [2].

B2: Example 266 (peptide)
peptide: YXEGTXTSDXSIXLDXKAQXEFIXXLIKGGPSSGAPPPS
modifications: Aib2, αMeF(2F)6, OMeY10, αMeL13, Orn16, K17(Z), Aib20, D-Glu24, αMeY25, K28(Z), C-terminal NH2; Z = AEEA2-CO-(CH2)12-CO2H
On to B2, for which the “cAMP EC50” value is greater than 9950 nM in the experiment with human glucagon receptor, 0.0136 nM in experiment [1] and 0.282 nM in experiment [2]. The “cAMP Emax” value in experiment [2] came out at 90.5%.

B3: Example 265 (peptide)
peptide: YXEGTXTSDXSIXLDXKAQXKFIXXLIEGGPSSGAPPPS
modifications: Aib2, αMeF(2F)6, OMeY10, αMeL13, Orn16, K17(Z), Aib20, K21(Z), D-Glu24, αMeY25, C-terminal NH2; Z = AEEA2-CO-(CH2)12-CO2H
For the molecule B3, the figures for the “cAMP EC50” value (with human glucagon receptor; in experiment [1]; in experiment [2]) were greater than 9950 nM, 0.0145 nM and 0.262 nM, respectively.

B4: Example 270 (peptide)
peptide: YXEGTXTSDXSIXLDXIAQXEFIKXLIKGGPSSGAPPPS
modifications: Aib2, αMeF(2F)6, hTyr10, αMeL13, Orn16, Aib20, K24(Z), αMeY25, K28(Z), C-terminal NH2; Z = AEEA2-(γ-Glu)-CO-(CH2)12-CO2H
For B4, the results for the “cAMP EC50” value (with human glucagon receptor; in experiment [1]; in experiment [2]) were greater than 9950 nM, 0.0567 nM and 0.551 nM, respectively.

B5: Example 249 (peptide)
peptide: YXEGTXTSDXSIXLDXKAQXKFIXXLIEGGPSSGAPPPS
modifications: Aib2, αMeF(2F)6, 2Nal10, αMeL13, Orn16, K17(Z), Aib20, K21(Z), D-Glu24, αMeY25, C-terminal NH2; Z = AEEA2-(γ-Glu)-CO-(CH2)12-CO2H
For B5, the “cAMP EC50” value was greater than 9950 nM in the experiment with human glucagon receptor, 0.0201 nM in experiment [1] and 0.3 nM in experiment [2].

B6: Example 259 (peptide)
peptide: YXEGTXTSDXSIXLDXKAQXKFIXXLIEGGPSSGAPPPS
modifications: Aib2, αMeF(2F)6, OMeY10, αMeL13, Orn16, K17(Z), Aib20, K21(Z), D-Glu24, αMeY25, C-terminal NH2; Z = AEEA2-(γ-Glu)-CO-(CH2)12-CO2H
As for B6, the “cAMP EC50” value is greater than 9950 nM in the experiment with human glucagon receptor, 0.0198 nM in experiment [1] and 0.362 nM in experiment [2].

B7: Example 227 (peptide)
peptide: YXEGTXTSDXSIXLDXIAQXKFIXXLIKGGPSSGAPPPS
modifications: Aib2, αMeF(2F)6, 4Pal10, αMeL13, Orn16, Aib20, K21(Z), D-Glu24, αMeY25, K28(Z), C-terminal NH2; Z = AEEA3-(γ-Glu)-CO-(CH2)12-CO2H
Regarding B7, the entries for the “cAMP EC50” value (in the experiment with human glucagon receptor; in experiment [1]; in experiment [2]) were greater than 9950 nM, 0.0224 nM and 1.22 nM, respectively.

B8: Example 256 (peptide)
peptide: YXEGTXTSDXSIXLDXKAQXEFIXXLIKGGPSSGAPPPS
modifications: Aib2, αMeF(2F)6, 2Nal10, αMeL13, Orn16, K17(Z), Aib20, D-Glu24, αMeY25, K28(Z), C-terminal NH2; Z = AEEA2-CO-(CH2)12-CO2H
As for B8, the figures for the “cAMP EC50” value (with human glucagon receptor; in experiment [1]; in experiment [2]) were greater than 9950 nM, 0.0175 nM and 0.249 nM, respectively.

B9: Example 250 (peptide)
peptide: YXEGTXTSDXSIXLDXKAQXEFIXXLIKGGPSSGAPPPS
modifications: Aib2, αMeF(2F)6, 2Nal10, αMeL13, Orn16, K17(Z), Aib20, D-Glu24, αMeY25, K28(Z), C-terminal NH2; Z = AEEA2-(γ-Glu)-CO-(CH2)12-CO2H
Consider B9, for which the “cAMP EC50” value in the experiment with human glucagon receptor was greater than 9950 nM; in experiment [1], 0.021 nM; in experiment [2], 0.414 nM.

B10: Example 271 (peptide)
peptide: YXEGTXTSDXSIXLDXKAQXKFIXXLIEGGPSSGAPPPS
modifications: Aib2, αMeF(2F)6, Nle10, αMeL13, Orn16, K17(Z), Aib20, K21(Z), D-Glu24, αMeY25, C-terminal NH2; Z = AEEA2-CO-(CH2)12-CO2H
B10: the “cAMP EC50” value with human glucagon receptor was greater than 9950 nM; in experiment [1], 0.0186 nM; in experiment [2], 0.494 nM.

B11: Example 272 (peptide)
peptide: YXEGTXTSDXSIXLDXKAQXKFIXXLIEGGPSSGAPPPS
modifications: Aib2, αMeF(2F)6, hTyr10, αMeL13, Orn16, K17(Z), Aib20, K21(Z), D-Glu24, αMeY25, C-terminal NH2; Z = AEEA2-CO-(CH2)12-CO2H
In the case of B11, the figures for the “cAMP EC50” value (in the experiment with human glucagon receptor; in experiment [1]; in experiment [2]) were greater than 9950 nM, 0.0264 nM and 0.388 nM, respectively.

B12: Example 262 (peptide)
peptide: YXEGTXTSDXSIXLDXIAQXEFIKXLIKGGPSSGAPPPS
modifications: Aib2, αMeF(2F)6, OMeY10, αMeL13, Orn16, Aib20, K24(Z), αMeY25, K28(Z), C-terminal NH2; Z = AEEA2-(γ-Glu)-CO-(CH2)12-CO2H
Turning to B12, the “cAMP EC50” value in the experiment with human glucagon receptor was greater than 9950 nM; in experiment [1], 0.0327 nM; in experiment [2], 0.472 nM.

B13: Example 263 (peptide)
peptide: YXEGTXTSDXSIXLDXIAQXKFIXXLIKGGPSSGAPPPS
modifications: Aib2, αMeF(2F)6, OMeY10, αMeL13, Orn16, Aib20, K21(Z), D-Glu24, αMeY25, K28(Z), C-terminal NH2; Z = AEEA2-(γ-Glu)-CO-(CH2)12-CO2H
B13: the results for the “cAMP EC50” value (with human glucagon receptor; in experiment [1]; in experiment [2]) were greater than 9950 nM, 0.0214 nM and 0.294 nM, respectively. The “cAMP Emax” value in experiment [1] was 88.6%.

B14: Example 253 (peptide)
peptide: YXEGTXTSDXSIXLDXIAQXKFIXXLIKGGPSSGAPPPS
modifications: Aib2, αMeF(2F)6, 2Nal10, αMeL13, Orn16, Aib20, K21(Z), D-Glu24, αMeY25, K28(Z), C-terminal NH2; Z = AEEA2-(γ-Glu)-CO-(CH2)12-CO2H
On to B14, for which the “cAMP EC50” value is greater than 9950 nM in the experiment with human glucagon receptor, 0.0295 nM in experiment [1] and 0.43 nM in experiment [2].
